Experiment [1] concerns the target T1, human c-Met on cells (human, UniProt P08581 25-1390).
T1 construct: c-Met on NCI-H441, NCI-H292, NCI-H1975 and U87-MG cells; in U-2 OS cells a beta-galactosidase fragment was fused to its C-terminus; also called hepatocyte growth factor receptor
Nature of the experiment: H441 cell binding assay (assay for c-Met binding). How it is done:
Purified FN3 domains (50 μL/well; 0 to 1000 nM) were added to the cells for 1 hour at 4° C. in duplicate plates. […] Cells were incubated with biotinylated-anti HIS antibody (diluted 1:160 in FACS stain buffer, 50 μL/well, R&D Systems, cat #BAM050) for 30 minutes at 4° C. […] Cells were washed three times with FACS stain buffer (150 μL/well) and left in FACS stain buffer (50 μL/well).

For experiment [2], the target named is human c-Met extracellular domain (human, UniProt P08581 16-932). The experiment can be described thus: MSD plate competition assay, competitor biotinylated HGF at 10 nM. How it is done: MSD Blocker A buffer (Meso Scale Discovery, Gaithersburg, Md.) was added to each well and incubated for 2 hr at room temperature. […] After 2-hour incubation with gentle shaking at room temperature, the plates were washed 3 times with 0.1M HEPES buffer (pH 7.4). MSD Read Buffer T was diluted and dispensed and the signals were analyzed with a SECTOR Imager 6000.

Experiment [3] addresses T2, human EGFR on cells (human, UniProt P00533 25-1210). The experiment can be described thus: cell-based or functional assay.
Experiment [4] addresses T3, recombinant human extracellular domain of EGFR fused to an IgG1 Fc (human, UniProt P00533 25-645).
T3 construct: Bought from R&D Systems; The residues are stated for the panning reagent; also called EGFR-Fc; EGF R-Fc; not shown: IgG1 Fc
The experiment can be described thus: SPR (ProteOn), EGFR-Fc captured on anti-human Fc IgG, FN3 domain as analyte. How it is done:
Select EGFR-binding FN3 domains were screened to identify those with slow off-rates (koff) in binding to EGFR-Fc on a ProteOn XPR-36 instrument (Bio-Rad) to facilitate selection of high affinity binders. Goat anti-human Fc IgG (R&D systems), at a concentration of 5 μg/mL, was directly immobilized via amine coupling (at pH 5.0) on all 6 ligand channels in horizontal orientation on the chip with a flow rate of 30 μL/min in PBS containing 0.005% Tween-20. The immobilization densities averaged about 1500 Response Units (RU) with less than 5% variation among different channels. EGFR-Fc was captured on the anti-human Fc IgG surface to a density around 600 RU in vertical ligand orientation. All tested FN3 domains were normalized to a concentration of […] and tested for their binding in horizontal orientation. All 6 analyte channels were used for the FN3 domains to maximize screening throughput. The dissociation phase was monitored for 10 minutes at a flow rate of 100 μL/min. The inter-spot binding signals were used as references to monitor non-specific binding between analytes and the immobilized IgG surface, and were subtracted from all binding responses. The processed binding data were locally fit to a 1:1 simple Langmuir binding model to extract the koff for each FN3 domain binding to captured EGFR-Fc.
Binding affinity of selected EGFR-binding FN3 domains to recombinant EGFR extracellular domain was further characterized by surface Plasmon resonance methods using a Proteon Instrument (BioRad). The assay set-up (chip preparation, EGFR-Fc capture) was similar to that described above for off-rate analysis. Selected EGFR binding FN3 domains were tested at 1 μM concentration in 3-fold dilution series in the horizontal orientation. A buffer sample was also injected to monitor the baseline stability.

The target of experiment [5] is T2, human EGFR on cells. The experiment can be described thus: A431 cell EGF competition assay, competitor biotinylated EGF; A431 cell EGF competition assay: displaces EGF from EGFR on A431 cells.
In experiment [6] the target is T1, human c-Met on cells. The experiment can be described thus: cell-based or functional assay.
In experiment [7] the target is T2, human EGFR on cells. Nature of the experiment: A431 cell binding assay (assay for EGFR binding).
The target of experiment [8] is T3, recombinant human extracellular domain …. The experiment can be described thus: affinity printed beside the clone name; SPR on EGFR-Fc taken as the method.

Usually EC50 stands for the concentration at which the effect is half-maximal. A lower EC50 goes with an effect from little substance. In general, IC50 refers to the midpoint of a concentration-inhibition curve. High values mean weaker potency in that assay, low ones greater potency in that assay. In general, Kd refers to the constant that tells how readily two partners part at equilibrium.

B1: parental bivalent anti-c-Met antibody M1-K409R (antibody, human IgG1, kappa, V domains shown)
VH: QVQLVQSGAEVKKPGASVKVSCETSGYTFTSYGISWVRQAPGHGLEWMGWISAYNGYTNYAQKLQGRVTMTTDTSTSTAYMELRSLRSDDTAVYYCARDLRGTNYFDYWGQGTLVTVSS
VL: DIQMTQSPSSVSASVGDRVTITCRASQGISNWLAWFQHKPGKAPKLLIYAASSLLSGVPSRFSGSGSGTDFTLTISSLQPEDFATYYCQQANSFPITFGQGTRLEIKR
notes: also called parental bivalent antibody; Parental mAbs
In turn, B1 registered an EC50 with human c-Met on cells [1] of 0.65 nM. Besides, the IC50 in experiment [2] turned out to be 14.8 nM.

B2: P54CR4-31 (designed binder, not shown: small tags and cut ends)
chain: LPAPKNLVVSEVTEDSLRLSWTAPDAAFDSFLIQYQESEKVGEAINLTVPGSERSYDLTGLKPGTEYTVSIYGVLGSYVFEHDVMLPLSAEFTT
B2: in the experiment with human EGFR on cells [3], the “NCI-H292 Growth IC50” value stood at 1150 nM, the “NCI-H322 Growth IC50” value was greater than 3070 nM and the “Phospho-EGFR IC50 (A431 cells)” value amounted to 179 nM. Moreover, in experiment [4], the Kd turned out to be 0.383 nM. The IC50 in the experiment with human EGFR on cells [5] was found to be 55 nM.

B3: control monovalent anti-cMet mAb M1-K409R-gp120-F405L (bispecific antibody, human IgG1, kappa)
heavy 1: not shown
light 1: DIQMTQSPSSVSASVGDRVTITCRASQGISNWLAWFQHKPGKAPKLLIYAASSLLSGVPSRFSGSGSGTDFTLTISSLQPEDFATYYCQQANSFPITFGQGTRLEIKRTVAAPSVFIFPPSDEQLKSGTASVVCLLNNFYPREAKVQWKVDNALQSGNSQESVTEQDSKDSTYSLSSTLTLSKADYEKHKVYACEVTHQGLSSPVTKSFNRGEC
heavy 2: not shown
light 2: EIVLTQSPGTLSLSPGERATFSCRSSHSIRSRRVAWYQHKPGQAPRLVIHGVSNRASGISDRFSGSGSGTDFTLTITRVEPEDFALYYCQVYGASSYTFGQGTKLERKRTVAAPSVFIFPPSDEQLKSGTASVVCLLNNFYPREAKVQWKVDNALQSGNSQESVTEQDSKDSTYSLSSTLTLSKADYEKHKVYACEVTHQGLSSPVTKSFNRGEC
notes: also called M1-K409R-120-F405L
On to B3, for which the “inhibition of ligand-induced c-Met phosphorylation in H292 cells (IC50)” value with human c-Met on cells [6] turned out to be 4.05 nM. Further, in the experiment with human c-Met on cells [1], the EC50 worked out at 1 nM.

B4: control monovalent anti-EGFR mAb E1-F405L-gp120-K409R (bispecific antibody, human IgG1, kappa)
heavy 1: not shown
light 1: not shown
heavy 2: not shown
light 2: EIVLTQSPGTLSLSPGERATFSCRSSHSIRSRRVAWYQHKPGQAPRLVIHGVSNRASGISDRFSGSGSGTDFTLTITRVEPEDFALYYCQVYGASSYTFGQGTKLERKRTVAAPSVFIFPPSDEQLKSGTASVVCLLNNFYPREAKVQWKVDNALQSGNSQESVTEQDSKDSTYSLSSTLTLSKADYEKHKVYACEVTHQGLSSPVTKSFNRGEC
notes: also called E1-F405L-120-K409R
In the experiment with human EGFR on cells [7], B4 had an EC50 of 10.1 nM.

B5: P53A1R5-17v2 (designed binder, not shown: small tags and cut ends)
chain: LPAPKNLVVSEVTEDSARLSWADPHGFYDSFLIQYQESEKVGEAIVLTVPGSERSYDLTGLKPGTEYTVSIYGVHNVYKDTNMRGLPLSAIFTT
On to B5, for which the Kd in experiment [8] turned out to be 1.9 nM.
